Nine substances from patent US9999687B2, “Fluorescent imaging agents” (VisEn Medical, Inc., priority 2008, dated 2018) can be followed below.

Assay [1] deals with inflamed atherosclerotic plaques of high cholesterol fed apoE-/- mice. Put plainly: Cardiovascular disease imaging, fluorescence reflectance. It is filed as in vivo. Particulars: 2 nmol, 24 hours post-injection, ex vivo fluorescence reflectance imaging; FIG. 8. On the procedure:
High cholesterol fed apoE−/− mice were injected with 2 nmol of imaging agent and in vivo imaging was performed with ex vivo fluorescence reflectance imaging.

Assay [2] deals with T1, Recombinant human Cathepsin B (Homo sapiens, UniProt P07858).
T1 construct: purchased R&D Systems
The assay can be described thus: Enzyme activation profile of Q65, Cathepsin B. It is filed as biochemical. The following applies: probe 0.5 μM, enzyme 0.05 μM, room temperature, monitored 0-24 hours; FIG. 5. The procedure:
The reactions were performed with appropriate buffer at room temperature in a 96-well plate with a final assay volume of 250 μL and probe and enzyme concentrations of 0.5 μM and 0.05 μM, respectively. The buffer for Cathepsin B was 25 mM MES (pH 5.0), 1 mM DTT. Recombinant human Cathepsin B (R&D Systems) was activated in buffer of 25 mM MES (pH 5.0) and 5 mM DTT for 15 minutes at room temperature. Recombinant human Cathepsin L (R&D Systems) was activated in buffer of 50 mM MES (pH 6.0), 5 mM DTT, for 15 minutes on ice. Recombinant mouse Cathepsin Z (R&D Systems) was activated in buffer of 25 mM NaOAc (pH 3.0), 5 mM DTT for 5 minutes at room temperature. The buffer for plasmin (CalBiochem) and trypsin (Sigma) was PBS at pH 7.4.
The plate was incubated at room temperature and the activity monitored at 0, 1, 3, 5, and 24 hours with a Gemini (Molecular Devices) plate reader at excitation wavelength 663 nm, emission 690 nm, and cut off 665 nm. The activity was calculated as the fold of activation by comparing the fluorescence of the enzyme with probe to the fluorescence of probe alone.

Assay [3] deals with activated humanized rabbit Cathepsin K. The assay can be described thus: Enzyme activation profile of Q92 and Q93, Cathepsin K. Format: biochemical. Particulars: probe 0.5 μM, enzyme 0.05 μM, room temperature, 0-24 hours; panel also Cathepsin B, L, MMP-2, MMP-9; FIG. 6. On the procedure: The reactions were performed with appropriate buffer at room temperature in a 96-well plate with a final assay volume of 250 μL and probe and enzyme concentrations of 0.5 μM and 0.05 μM respectively. The buffer for activated humanized rabbit Cathepsin K (Merck) was 50 mM MES (pH 5.0), 2.5 mM EDTA, 2.5 mM DTT. The buffer for Cathepsin B was 25 mM MES (pH 5.0), 1 mM DTT. The recombinant human Cathepsin B (R&D Systems) was activated in buffer of 25 mM MES (pH 5.0) and 5 mM DTT for 15 minutes at room temperature. The recombinant human Cathepsin L (R&D Systems) was activated in buffer of 50 mM MES (pH 6.0), 5 mM DTT, for 15 minutes on ice. The buffer for MMP-2 (BIOMOL) and MMP-9 (BIOMOL) was 50 mM Tris (pH 7.5), 10 mM CaCl2, 150 mM NaCl, and 0.05% Brij-35 detergent. The plate was incubated at room temperature and the activity was monitored at 0, 1, 3, 5, and 24 hours with a Gemini (Molecular Devices) plate reader at excitation wavelength 663 nm, emission 690 nm, and cut off 665 nm. The released fluorescent unit was determined by subtracting the fluorescence of the probe alone from the total fluorescence.

Assay [4] concerns ovariectomized mice, tibia region. Put plainly: Bone imaging, ovariectomy induced osteoporosis. Format: in vivo, BALB/c female mice. The following applies: intravenous, 4 and 24 hours post-injection, fluorescence molecular tomography; FIG. 7. On the procedure:
BALB/c female mice 7 weeks old (Charles River Laboratory, Wilmington, Mass.) were subjected to ovariectomy or sham surgery to induce osteoporosis. After one to two weeks after surgery, the mice were injected intravenously with imaging agent [F5]-His-Gly-Pro-Asn-Lys(F5)-[PEG20kDa] (SEQ ID NO:427) (Agent Q94). Imaging was conducted at various time points using a Fluorescence Molecular Tomography system (VisEn Medical, Bedford, Mass.).

Assay [5] has as its target T2, recombinant human Renin (rhRenin) (Homo sapiens, UniProt P00797).
T2 construct: purchased Proteos
T2 sequence (P00797 67-406): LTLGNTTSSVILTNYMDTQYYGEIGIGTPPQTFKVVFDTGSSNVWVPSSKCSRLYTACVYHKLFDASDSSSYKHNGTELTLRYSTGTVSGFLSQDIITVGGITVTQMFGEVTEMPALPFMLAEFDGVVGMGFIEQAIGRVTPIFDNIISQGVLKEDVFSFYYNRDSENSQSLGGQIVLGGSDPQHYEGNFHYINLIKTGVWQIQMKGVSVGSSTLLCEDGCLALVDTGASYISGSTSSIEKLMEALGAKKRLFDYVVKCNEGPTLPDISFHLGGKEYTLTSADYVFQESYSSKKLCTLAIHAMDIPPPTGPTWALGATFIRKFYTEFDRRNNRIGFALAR
Put plainly: Enzyme activation profile of R agents, renin. Format: biochemical. Particulars: probe 1 μM, enzyme 100 nM, 37 C, 24 hours; FIG. 11. The procedure: (§1) The reactions were performed with appropriate buffer in a 96-well plate with a final assay volume of 250 μL and probe and enzyme concentrations of 1 μM and 100 nM, respectively. The reactions were incubated at 37 C for Renin and room temperature for the other proteases. The buffer for human neutrophil Cathepsin G (BIOMOL) was 100 mM Tris (pH 7.5), 1.6 M NaCl. The buffer for Cathepsin D (BIOMOL) was 100 mM Formic Acid (pH 3.3). The buffer for recombinant human neutrophil elastase (Innovative Research) was 100 mM Tris (pH 7.5). The buffer for plasmin (CalBiochem) and trypsin (Sigma) was 1× phosphate buffered saline (PBS) (pH 7.4). The buffer for recombinant human Renin (rhRenin) (Proteos) and recombinant rat Renin (rrRenin) (Proteos) was 50 mM MOPS (pH 7.4), 100 mM NaCl, with freshly prepared 0.002% tween-20. The plate was incubated at the appropriate temperature and the activity was monitored at 24 hours with a Gemini (Molecular Devices) plate reader at excitation wavelength 663 nm, emission 690 nm, and cut off 665 nm. The released fluorescent unit was determined by subtracting the fluorescence of the probe alone from the total fluorescence.

The next assay deals with trypsin. Put plainly: Enzyme activation profile of R agents, trypsin. It is filed as biochemical. Particulars: probe 1 μM, enzyme 100 nM, room temperature, 24 hours; FIG. 11. On the procedure: as §1
Assay [6] concerns the target T3, human neutrophil Cathepsin G (Homo sapiens, UniProt P08311).
T3 construct: purchased BIOMOL
T3 sequence (P08311 21-244): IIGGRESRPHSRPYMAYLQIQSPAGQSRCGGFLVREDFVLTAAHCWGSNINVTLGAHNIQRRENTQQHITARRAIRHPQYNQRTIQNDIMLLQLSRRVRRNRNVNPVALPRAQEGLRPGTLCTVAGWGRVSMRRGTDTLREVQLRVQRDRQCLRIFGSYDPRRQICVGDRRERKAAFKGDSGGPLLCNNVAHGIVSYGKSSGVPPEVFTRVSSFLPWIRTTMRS
The assay can be described thus: Enzyme activation profile of R agents, Cathepsin G. It is filed as biochemical. Particulars: probe 1 μM, enzyme 100 nM, room temperature, 24 hours; FIG. 11. The procedure: as §1

The target of assay [7] is T4, recombinant human neutrophil elastase (Homo sapiens, UniProt P08246).
T4 construct: purchased Innovative Research
T4 sequence (P08246 30-267): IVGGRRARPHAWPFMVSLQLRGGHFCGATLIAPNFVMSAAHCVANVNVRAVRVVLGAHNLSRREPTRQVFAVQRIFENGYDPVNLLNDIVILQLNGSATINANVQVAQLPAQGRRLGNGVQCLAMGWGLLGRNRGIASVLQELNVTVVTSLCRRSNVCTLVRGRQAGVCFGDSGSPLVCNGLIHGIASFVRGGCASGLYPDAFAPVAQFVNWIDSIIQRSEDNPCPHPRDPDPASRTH
The assay can be described thus: Enzyme activation profile of R agents, neutrophil elastase. It is filed as biochemical. Particulars: probe 1 μM, enzyme 100 nM, room temperature, 24 hours; FIG. 11. The procedure: as §1

Assay [8] relates to kidneys of mice on a low sodium diet. Put plainly: Renal imaging, low sodium diet versus control diet. The following applies: intravenous 0.2-4 nmol/mouse, imaging at 24 hrs, fluorescence molecular tomography; FIG. 12. It is filed as in vivo, C57BL6 mice. On the procedure: C57BL6 mice (Jackson Laboratories) were fed a sodium deficient diet (0.02% Na) and water was replaced with a solution of amiloride (0.1 mg/5 mL or 5 mg/kg/day) for 2 days. Control C57BL6 mice were fed regular chow diet and water. Imaging agents [F5]-Lys-His-Pro-Phe-His-Leu-Val-Ile-His-Lys(F5)-[OH] (SEQ ID NO:401) (R20) and ([F5]-Lys-His-Pro-Phe-His-Leu-Val-Ile-His-Lys(F5)-[NHmPEG20k] (SEQ ID NO:428) (R21) were injected intravenously at different concentrations (0.2, 0.7, 2 and 4 nmol/mouse) following 2 days on a low salt diet. Imaging was conducted at 24 hrs using a Fluorescence Molecular Tomography system (VisEn Medical, Woburn Mass.).

[ ]: non-standard residue; d: D form. The star is where a group is joined. Cha = N[C@@H](CC1CCCCC1)C(=O)O; Pent4ynoyl = C#CCCC(=O)*; F5 = not defined here; βAla = NCCC(=O)O

In the case of “Pentynoyl-Lys(F5)-Gly-Phe-Leu-Gly-βAla-Lys(F5)-PEG20kDa (Pent4ynoyl-K(F5)GFLG[βAla]K(F5)-PEG20kDa; reading uncertain; also: printed as Pentynoyl-Lys(F5)-Gly-Phe-Leu-Gly-βAla-Lys(F5)-PEG20kDa) [Agent Q65]”, in assay [1], the “fluorescence in atherosclerotic plaques” value was “Fluorescence was detected in plaque-laden vascular sections in the aortic root, the arch and carotid arteries”. Moreover, the “activation by Cathepsin B (fold of activation)” value in [2] is on record as “activated by Cathepsin B”.

Turning to “[F5]-His-Gly-Pro-Arg-Lys(F5)-[PEG20kDa] (F5-HGPRK(F5)-PEG20kDa; reading uncertain; also: printed as [F5]-His-Gly-Pro-Arg-Lys(F5)-[PEG20kDa]) [Agent Q92]”, in assay [3], the “activation by Cathepsin K (released fluorescent unit)” value was “activated primarily by Cathepsin K”.

Regarding “[F5]-His-Gly-Pro-Asn-Lys(F5)-His-Gly-Pro-Asn-βA-[PEG20kDa] (F5-HGPNK(F5)HGPN[βAla]-PEG20kDa; reading uncertain; also: printed as [F5]-His-Gly-Pro-Asn-Lys(F5)-His-Gly-Pro-Asn-βA-[PEG20kDa]) [Agent Q93]”, in assay [3], the “activation by Cathepsin K (released fluorescent unit)” value is listed as “activated primarily by Cathepsin K”.

With “[F5]-His-Gly-Pro-Asn-Lys(F5)-[PEG20kDa] (F5-HGPNK(F5)-PEG20kDa; reading uncertain; also: printed as [F5]-His-Gly-Pro-Asn-Lys(F5)-[PEG20kDa]) [Agent Q94]”, in assay [4], the “probe signal in tibia region, ovariectomized versus sham mice” value is “increased probe signal detected in the tibia region”.

Consider “[F5]-Lys(Ac)-His-Pro-Phe-His-Leu-Val-Ile-His-Lys(F5)-[OH] (F5-K(Ac)HPFHLVIHK(F5)-OH; reading uncertain; also: printed as [F5]-Lys(Ac)-His-Pro-Phe-His-Leu-Val-Ile-His-Lys(F5)-[OH]) [Agent R23]”, for which, in assay [5], the “activation by recombinant human renin (released fluorescent unit)” value (shortened to “activation by recombinant human renin”) was “activated primarily by recombinant human rennin”.

As for “[F5]-Lys-His-Pro-Phe-His-Cha-Val-Ile-His-Lys(F5)-[OH] (F5-KHPFH[Cha]VIHK(F5)-OH; reading uncertain; also: printed as [F5]-Lys-His-Pro-Phe-His-Cha-Val-Ile-His-Lys(F5)-[OH]) [Agent R24]”, in assay [5], the “activation by recombinant human renin” value is “activated primarily by recombinant human rennin”.

As to “[F5]-Lys-His-Pro-Phe-His-Leu-Val-Ile-His-Lys(F5)-[NHmPEG5k] (F5-KHPFHLVIHK(F5)-NHmPEG5k; reading uncertain; also: printed as [F5]-Lys-His-Pro-Phe-His-Leu-Val-Ile-His-Lys(F5)-[NHmPEG5k]) [Agent R27]”, the “activation by trypsin (released fluorescent unit)” value with trypsin is on record as “activated”. Also, the “activation by human neutrophil cathepsin (released fluorescent unit)” value in assay [6] is “activated”. The “activation by recombinant human renin” value in assay [5] is reported as “activated”. For the same substance, the “activation by human neutrophil elastase (released fluorescent unit)” value in assay [7] is listed as “activated”.

Regarding “[F5]-Lys-His-Pro-Phe-His-Leu-Val-Ile-His-Lys(F5)-[NHmPEG20k] (F5-KHPFHLVIHK(F5)-NHmPEG20k; reading uncertain; also: printed as [F5]-Lys-His-Pro-Phe-His-Leu-Val-Ile-His-Lys(F5)-[NHmPEG20k]) [Agent R21]”, the “kidney signal, low sodium diet versus control diet” value in assay [8] is reported as “increased signal relative to the kidneys in the mice on the control diet”. The “activation by trypsin (released fluorescent unit)” value in the assay with trypsin is listed as “activated”. Also, in [6], the “activation by human neutrophil cathepsin (released fluorescent unit)” value was “activated”. Also, in assay [5], the “activation by recombinant human renin” value was “activated”. The “activation by human neutrophil elastase (released fluorescent unit)” value in assay [7] was “activated”.

For “[F5]-Lys-His-Pro-Phe-His-Leu-Val-Ile-His-Lys(F5)-[OH] (F5-KHPFHLVIHK(F5)-OH; reading uncertain; also: printed as [F5]-Lys-His-Pro-Phe-His-Leu-Val-Ile-His-Lys(F5)-[OH]) [Agent R20]”, the “kidney signal, low sodium diet versus control diet” value in assay [8] is “increased signal relative to the kidneys in the mice on the control diet”. Further, the “activation by recombinant human renin” value in assay [5] was “activated primarily by recombinant human rennin”.
